Data set [1] deals with T1, TCP4-HIS (UniProt Q8LPR5 1-420).
T1 sequence: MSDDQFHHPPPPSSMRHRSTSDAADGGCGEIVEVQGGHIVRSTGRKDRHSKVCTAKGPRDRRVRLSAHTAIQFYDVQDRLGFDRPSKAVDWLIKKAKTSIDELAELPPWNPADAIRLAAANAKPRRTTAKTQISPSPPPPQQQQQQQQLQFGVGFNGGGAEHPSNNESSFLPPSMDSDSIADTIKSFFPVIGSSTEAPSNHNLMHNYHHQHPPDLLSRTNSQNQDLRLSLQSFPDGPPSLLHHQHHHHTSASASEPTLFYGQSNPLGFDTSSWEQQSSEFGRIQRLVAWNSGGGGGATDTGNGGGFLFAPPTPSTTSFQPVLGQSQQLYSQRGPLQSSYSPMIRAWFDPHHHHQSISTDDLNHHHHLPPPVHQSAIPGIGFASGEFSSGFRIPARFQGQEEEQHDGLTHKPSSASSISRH
Kind of data set: competition; 10x and 50x unlabeled probe against N1, dose-dependent; 20 mM HEPES-KOH pH 7.8, 100 mM KCl, 1 mM EDTA, 0.1% BSA, 10 ng herring sperm DNA, 10% glycerol; 100 fmol probe, 1 ug protein, 20 uL, 30 min, room temperature. To be noted: protein: recombinant; tags: His (pET32a fusion); chain copies: 2; blunt.

The next data set has as its target T2, rTCP4-HIS (UniProt Q8LPR5 1-420).
T2 sequence: T1 sequence
Nature of the data set: EMSA; 20 mM HEPES-KOH pH 7.8, 100 mM KCl, 1 mM EDTA, 0.1% BSA, 10 ng herring sperm DNA, 10% glycerol; 100 fmol probe, 1 ug protein, 20 uL, 30 min, room temperature. To be noted: protein: recombinant; tags: His (pET32a fusion); chain copies: 2; label: biotin 3'; blunt.

Data set [2] addresses T1, TCP4-HIS. The description is as above. The following applies: protein: recombinant; tags: His (pET32a fusion); chain copies: 2; label: biotin 3'; blunt.

We go through two molecules from paper PMC5595714, “Activation of secondary cell wall biosynthesis by miR319‐targeted TCP4 transcription factor”.

B1: VND7 promoter cold probe (dsDNA)
DNA 1: ATTGTTGGGTGGTCCCATAAAAAT
DNA 2: ATTTTTATGGGACCACCCAACAAT
In the case of B1, the binding result with TCP4-HIS [1] is reported as “binds”.

B2: VND7 promoter probe (dsDNA)
DNA 1: ATTGTTGGGTGGTCCCATAAAAAT
DNA 2: ATTTTTATGGGACCACCCAACAAT
Take B2: the binding result with rTCP4-HIS and with TCP4-HIS [2] was “binds” in each case.
